How the values were obtained:
[1] = target: T1, STEAP2 endogenously expressed on C4-2 cells (human, UniProt Q8NFT2 1-490); assay: cell-based or functional assay
T1 sequence (looked up): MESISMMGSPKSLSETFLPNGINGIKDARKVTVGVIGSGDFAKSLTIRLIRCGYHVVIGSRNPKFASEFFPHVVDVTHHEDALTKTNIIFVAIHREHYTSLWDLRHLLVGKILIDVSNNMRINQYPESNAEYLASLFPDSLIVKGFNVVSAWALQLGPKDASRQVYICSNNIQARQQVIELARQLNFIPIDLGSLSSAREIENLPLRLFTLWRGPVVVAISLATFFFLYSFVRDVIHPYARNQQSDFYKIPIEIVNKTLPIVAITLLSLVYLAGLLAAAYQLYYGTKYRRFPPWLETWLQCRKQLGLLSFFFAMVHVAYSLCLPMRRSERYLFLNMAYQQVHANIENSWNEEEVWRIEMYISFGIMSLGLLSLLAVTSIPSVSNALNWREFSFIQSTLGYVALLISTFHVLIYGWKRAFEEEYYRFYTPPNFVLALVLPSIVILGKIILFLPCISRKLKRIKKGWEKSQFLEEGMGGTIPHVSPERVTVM

[2] = tested on: STEAP2 positive C4-2 prostate cancer xenografts; assay: In vivo efficacy of anti-STEAP2 ADCs in C4-2 prostate cancer xenografts in SCID mice; set-up: species or system mouse; conditions: single dose 2.5 mg/kg via tail vein; end of study
Protocol: To determine the in vivo efficacy of anti-STEAP2 antibodies conjugated to tubulysins, studies were performed in immunocompromised mice bearing STEAP2 positive C4-2 prostate cancer xenografts.
For the assay, 7.5×10^6 C4-2 cells (ATCC, Cat #CRL-3314), which endogenously express STEAP2, were suspended in Matrigel (BD Biosciences, Cat #354234) and implanted subcutaneously into the left flank of male CB17 SCID mice (Taconic, Hudson NY). Once tumors had reached an average volume of 220 mm^3 (around Day 15), mice were randomized into groups of 7 and given a single dose of either anti-STEAP2 conjugated antibodies (anti-STEAP2-LP3, anti-STEAP2-LP4, anti-STEAP2-MMAE), isotype control conjugated antibody, or vehicle at 2.5 mg/kg via tail vein injection. Tumors were measured with calipers twice a week until the average size of the vehicle group reached 1500 mm^3. Tumor size was calculated using the formula (length×width^2)/2 and the average tumor size+/−SEM was then calculated. Tumor growth inhibition was calculated according to the following formula: (1−((Tfinal−Tinitial)/(Cfinal−Cinitial)))*100, where treated group (T) and control group (C) represent the mean tumor mass on the day the vehicle group reached 1500 mm^3.

[3] = tested on: CTG-2440 prostate cancer PDX; assay: Efficacy of STEAP2-Tubulysin ADC in CTG-2440 PDX prostate cancer model in NOG mice; assay type: in vivo, mouse
Protocol: (§1) Prostate cancer Patient-Derived Xenograft (PDX) tumor fragments of either CTG-2440 or CTG-2441 were implanted subcutaneously into the flank of male NOG mice. Once the tumor volumes reached approximately 200 mm^3, mice were randomized into groups of eight and were treated according to the schedule shown in Table 16 below. Tumor growth was monitored for 60 days post-implantation.
(§2) The prostate cancer models were derived from the bone metastases of patients with metastatic castrate resistant prostate cancer (mCRPC). STEAP2 expression was confirmed by RNA sequencing data and RNA in situ hybridization.

[4] = tested on: CTG-2441 prostate cancer PDX; assay: Efficacy of STEAP2-Tubulysin ADC in CTG-2441 PDX prostate cancer model in NOG mice; assay type: in vivo, mouse
Protocol: as §1, §2

[5] = target: T2, human full length PRLR (accession #NP_000940.1) expressed on HCT15/PRLR cells (human, UniProt P16471 25-622); assay: cell-based or functional assay
T2 sequence (looked up): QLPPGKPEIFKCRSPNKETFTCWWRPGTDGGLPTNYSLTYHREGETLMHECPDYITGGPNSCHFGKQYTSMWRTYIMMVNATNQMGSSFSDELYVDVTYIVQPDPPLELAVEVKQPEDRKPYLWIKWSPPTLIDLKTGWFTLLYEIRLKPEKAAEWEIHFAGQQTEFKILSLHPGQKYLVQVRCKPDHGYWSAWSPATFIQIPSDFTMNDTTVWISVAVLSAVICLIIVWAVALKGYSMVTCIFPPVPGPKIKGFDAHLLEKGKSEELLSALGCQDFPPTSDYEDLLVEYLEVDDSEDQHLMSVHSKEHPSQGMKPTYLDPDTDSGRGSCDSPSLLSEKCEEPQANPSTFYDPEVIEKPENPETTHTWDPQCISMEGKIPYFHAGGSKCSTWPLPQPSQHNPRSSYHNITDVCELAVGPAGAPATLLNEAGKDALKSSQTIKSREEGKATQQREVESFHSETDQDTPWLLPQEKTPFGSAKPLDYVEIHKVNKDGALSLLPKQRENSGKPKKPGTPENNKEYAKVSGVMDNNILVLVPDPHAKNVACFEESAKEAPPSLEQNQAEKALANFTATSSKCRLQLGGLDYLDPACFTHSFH

[6] = 1.86 mg/kg QW × 1, total payload dose 40 ug/kg
[7] = 1.86 mg/kg QW × 3, total payload dose 120 ug/kg
[8] = 3.72 mg/kg QW × 3, total payload dose 240 ug/kg
[9] = 1.82 mg/kg QW × 1, total payload dose 40 ug/kg
[10] = 1.82 mg/kg QW × 3, total payload dose 120 ug/kg
[11] = 3.64 mg/kg QW × 3, total payload dose 240 ug/kg

B1: Anti-STEAP2-MMAE (antibody, V domains shown)
VH: QVQLVESGGGVVQPGRSLRLSCVASGFTISSYGMNWVRQAPGKGLEWVAVISYDGGNKYSVDSVKGRFTISRDNSKNTLYLQMNSLRAEDSAVYYCARGRYFDLWGRGTLVTVSS
VL: DIQMTQSPSTLSASVGDRVTITCRASQSISSWLAWYQQKPGRAPNLLISKASSLKSGVPSRFSGSGSGTEFTLTVSSLQPDDFATYYCQQYYSYSYTFGQGTKLEIK
modifications: conjugated to MMAE (payload of LP8, reference linker-payload); site of conjugation and DAR not stated
[1]
  % kill, C4-2 cells: 99%
  IC50 (nM), cytotoxicity in C4-2 cells (CellTiter-Glo): 0.53 nM
[2]
  Average Final Tumor size mm^3 (mean ± SEM): 475 ± 118 mm^3
  Average Tumor Growth Inhibition (%): 81%

B2: Anti-STEAP2-LP4 (conjugate)
VH: QVQLVESGGGVVQPGRSLRLSCVASGFTISSYGMNWVRQAPGKGLEWVAVISYDGGNKYSVDSVKGRFTISRDNSKNTLYLQMNSLRAEDSAVYYCARGRYFDLWGRGTLVTVSS
VL: DIQMTQSPSTLSASVGDRVTITCRASQSISSWLAWYQQKPGRAPNLLISKASSLKSGVPSRFSGSGSGTEFTLTVSSLQPDDFATYYCQQYYSYSYTFGQGTKLEIK
[2]
  Average Final Tumor size mm^3 (mean ± SEM): 258 ± 60 mm^3
  Average Tumor Growth Inhibition (%): 97%
[3]; [6]
  Final tumor volume (mm^3) at termination (mean ± SD): 179.9 ± 68.5 mm^3
  Tumor growth (mm^3) from start of treatment (mean ± SD): −20.0 ± 65.1 mm^3
[3]; [7]
  Final tumor volume (mm^3) at termination (mean ± SD): 73.5 ± 53.4 mm^3
  Tumor growth (mm^3) from start of treatment (mean ± SD): −129.3 ± 67.7 mm^3
[3]; [8]
  Final tumor volume (mm^3) at termination (mean ± SD): 6.0 ± 11.4 mm^3
  Tumor growth (mm^3) from start of treatment (mean ± SD): −196.5 ± 37.1 mm^3
[4]; [9]
  Final tumor volume (mm^3) at termination (mean ± SD): 171.8 ± 176.1 mm^3
  Tumor growth (mm^3) from start of treatment (mean ± SD): −36.8 ± 167.0 mm^3
[4]; [10]
  Final tumor volume (mm^3) at termination (mean ± SD): 46.0 ± 15.1 mm^3
  Tumor growth (mm^3) from start of treatment (mean ± SD): −164.0 ± 57.3 mm^3
[4]; [11]
  Final tumor volume (mm^3) at termination (mean ± SD): 33.5 ± 13.6 mm^3
  Tumor growth (mm^3) from start of treatment (mean ± SD): −179.1 ± 51.3 mm^3

B3: Anti-STEAP2-LP3 (conjugate)
VH: QVQLVESGGGVVQPGRSLRLSCVASGFTISSYGMNWVRQAPGKGLEWVAVISYDGGNKYSVDSVKGRFTISRDNSKNTLYLQMNSLRAEDSAVYYCARGRYFDLWGRGTLVTVSS
VL: DIQMTQSPSTLSASVGDRVTITCRASQSISSWLAWYQQKPGRAPNLLISKASSLKSGVPSRFSGSGSGTEFTLTVSSLQPDDFATYYCQQYYSYSYTFGQGTKLEIK
[2]
  Average Final Tumor size mm^3 (mean ± SEM): 115 ± 6 mm^3
  Average Tumor Growth Inhibition (%): 108%

B4: Anti-PRLR N297Q Ab-LP3 (antibody, V domains shown)
VH: QVQLVESGGGVVQPGRSLRLSCGASGFTFRNYGMQWVRQGPGKGLEWVTLISFDGNDKYYADSVKGRFTISRDNSKNTLFLQMNSLRTEDTAVYYCARGGDFDYWGQGTLVTVSS
VL: DIQMTQSPSSLSASVGDRVTITCRASQDIRKDLGWYQQKPGKAPKRLIYAASSLHSGVPSRFSGSGSGTEFTLTISSLQPEDFATYYCLQHNSYPMYTFGQGTKLEIK
modifications: N297Q (EU numbering) in the heavy chain constant region; linker-payload LP3 (payload IVd) clicked to azido-PEG3-amine that transglutaminase put on heavy chain glutamines; DAR 3.9 (Table 7)
[5]
  IC50 (nM) on HCT15/PRLR w/ Verapamil (CellTiter-Glo cytotoxicity): 0.309 nM
  IC50 (nM) on HCT15/PRLR w/o Verapamil (CellTiter-Glo cytotoxicity): 0.525 nM

B5: Anti-PRLR N297Q Ab-LP4 (antibody, V domains shown)
VH: QVQLVESGGGVVQPGRSLRLSCGASGFTFRNYGMQWVRQGPGKGLEWVTLISFDGNDKYYADSVKGRFTISRDNSKNTLFLQMNSLRTEDTAVYYCARGGDFDYWGQGTLVTVSS
VL: DIQMTQSPSSLSASVGDRVTITCRASQDIRKDLGWYQQKPGKAPKRLIYAASSLHSGVPSRFSGSGSGTEFTLTISSLQPEDFATYYCLQHNSYPMYTFGQGTKLEIK
modifications: N297Q (EU numbering) in the heavy chain constant region; linker-payload LP4 (payload Ve) clicked to azido-PEG3-amine that transglutaminase put on heavy chain glutamines; DAR 3.9 (Table 7)
[5]
  IC50 (nM) on HCT15/PRLR w/ Verapamil (CellTiter-Glo cytotoxicity): 0.196 nM
  IC50 (nM) on HCT15/PRLR w/o Verapamil (CellTiter-Glo cytotoxicity): 3.31 nM
